Experimental data as given in patent CN117624356A (VAZYME MEDICAL CO LTD; HUNAN NOVAZYME MEDICAL TECH CO LTD, dated 2024).

B1: Rabbit anti-NfL mAb (antibody, V domains shown)
VH: QSVEESGGRLVTPGTPLTLTCTASGIDLSNYAMNWVHQAPGKGLEWIAIIYASGSTYYTTWAKGRFTISKTSSTTVDLKITSPTTEDTATYFCARALSMTNVYTFNIWGPGTLVTVSS
VL: DVVMTQTPASVSEPVGGTVTIKCQASQNIYNNLAWYQQKPGQPPKLLIYKASTLASGVSSRFKGSGSGTEFTLTISDLECADAATYYCQCTYGSSYVAFGGGTEVVVK
notes: Rabbit monoclonal antibody developed earlier by the applicant; Used as the fixed capture antibody (coupled to magnetic beads in the chemiluminescence assay); also called 包被抗体; 配对抗体
B2: Anti-NfL-rRmab-1 (antibody, V domains shown)
VH: QSVEESGGRLVTPGTPLTLTCTASGFSLSIHDMSWVRQAPGKGLEWIGLISSNNNTYYASWAKGRFTISKTSTTVDLKITSPTTEDTATYFCARGGFSTDLWGPGTPVTVSS
VL: DVVMTQTPASVSEPVGGTVTIKCQASQSIYTYLSWYQQKPGQPPKLLIYGASNLASGVSSRFKGSGSGTDYTLTISGVQCDDAATYYCQCTYFSSSYVGGFGGGTEVVVK
notes: Labelled with acridinium ester as the detection antibody in the chemiluminescence assay; also called NfL特异性抗体; 优选抗体

How the values were obtained:
[1] = molecular target: T1, NfL-His重组蛋白 (神经丝轻链蛋白, Neurofilament light chain) (Homo sapiens (Human), UniProt P07196 1-543); experiment: sandwich ELISA, fixed antibody of the pair
T1 construct: Recombinant, expressed in 293F cells, C-terminal His tag; used as immunogen, sorting antigen and screening antigen; also called NfL-His蛋白
T1 sequence: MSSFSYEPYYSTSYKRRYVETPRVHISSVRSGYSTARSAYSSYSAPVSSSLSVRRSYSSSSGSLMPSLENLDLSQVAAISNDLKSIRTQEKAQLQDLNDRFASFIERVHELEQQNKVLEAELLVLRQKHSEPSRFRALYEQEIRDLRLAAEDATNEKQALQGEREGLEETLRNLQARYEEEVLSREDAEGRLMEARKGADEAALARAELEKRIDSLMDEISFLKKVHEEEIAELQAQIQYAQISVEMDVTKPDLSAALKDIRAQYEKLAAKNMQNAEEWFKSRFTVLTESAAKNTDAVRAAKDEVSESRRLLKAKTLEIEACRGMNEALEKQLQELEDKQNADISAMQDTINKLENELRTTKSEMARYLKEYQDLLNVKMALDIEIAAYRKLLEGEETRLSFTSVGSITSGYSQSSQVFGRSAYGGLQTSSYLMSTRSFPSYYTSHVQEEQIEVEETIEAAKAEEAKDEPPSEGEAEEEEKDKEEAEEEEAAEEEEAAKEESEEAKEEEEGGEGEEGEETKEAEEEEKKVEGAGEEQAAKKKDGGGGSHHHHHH

[2] = molecular target: T1, NfL-His重组蛋白 (神经丝轻链蛋白, Neurofilament …); experiment: sandwich chemiluminescence, NfL at 10000pg/mL, Rabbit anti-NfL mAb on beads as capture, acridinium ester labelled antibody as detection

| Binder | binding result [1] | binding result [2] |
| --- | --- | --- |
| B1 | binds |  |
| B2 |  | binds |
